Data as given in patent US20250215100A1 (HARBOUR BIOMED SHANGHAI, published 2025).

B1: PR006495 (antibody, human IgG1, kappa, V domains shown)
VH: QVQLVQSGAEVKKPGASVKVSCKASGYTFAGYYMYWVRQAPGQGLEWMGWINPDSGAPTYAQKFQGRVTMTRDTSISTAYMELSRLRSDDTAVYYCAREKIYYGSGNYYPSFDYWGQGTLVTVSS
VL: DIQLTQSPSFLSASVGDRVTITCRASQGISSYLAWYQQKPGKAPKLLIYAASTLQSGVPSRFSGSGSGTEFTLTISSLQPEDFATYYCQQLASYPWTFGQGTKVEIKR
notes: PR003379 variant L:N92A; human IgG1 L234A, L235A, G237A
B2: PR006504 (antibody, human IgG1, kappa, V domains shown)
VH: QVQLVQSGAEVKKPGASVKVSCKASGYTFAGYYMYWVRQAPGQGLEWMGWINPDSGAPTYAQKFQGRVTMTRDTSISTAYMELSRLRSDDTAVYYCAREKIYYGSGNYYPSFDYWGQGTLVTVSS
VL: DIQLTQSPSFLSASVGDRVTITCRASQGISSYLAWYQQKPGKAPKLLIYAASTLQSGVPSRFSGSGSGTEFTLTISSLQPEDFATYYCQQLVSYPWTFGQGTKVEIKR
notes: PR003379 variant L:N92V; human IgG1 L234A, L235A, G237A
B3: PR006497 (antibody, human IgG1, kappa, V domains shown)
VH: QVQLVQSGAEVKKPGASVKVSCKASGYTFAGYYMYWVRQAPGQGLEWMGWINPDSGAPTYAQKFQGRVTMTRDTSISTAYMELSRLRSDDTAVYYCAREKIYYGSGNYYPSFDYWGQGTLVTVSS
VL: DIQLTQSPSFLSASVGDRVTITCRASQGISSYLAWYQQKPGKAPKLLIYAASTLQSGVPSRFSGSGSGTEFTLTISSLQPEDFATYYCQQLYSYPWTFGQGTKVEIKR
notes: PR003379 variant L:N92Y; human IgG1 L234A, L235A, G237A
B4: PR006496 (antibody, human IgG1, kappa, V domains shown)
VH: QVQLVQSGAEVKKPGASVKVSCKASGYTFAGYYMYWVRQAPGQGLEWMGWINPDSGAPTYAQKFQGRVTMTRDTSISTAYMELSRLRSDDTAVYYCAREKIYYGSGNYYPSFDYWGQGTLVTVSS
VL: DIQLTQSPSFLSASVGDRVTITCRASQGISSYLAWYQQKPGKAPKLLIYAASTLQSGVPSRFSGSGSGTEFTLTISSLQPEDFATYYCQQLFSYPWTFGQGTKVEIKR
notes: PR003379 variant L:N92F; human IgG1 L234A, L235A, G237A
B5: PR006498 (antibody, human IgG1, kappa, V domains shown)
VH: QVQLVQSGAEVKKPGASVKVSCKASGYTFAGYYMYWVRQAPGQGLEWMGWINPDSGAPTYAQKFQGRVTMTRDTSISTAYMELSRLRSDDTAVYYCAREKIYYGSGNYYPSFDYWGQGTLVTVSS
VL: DIQLTQSPSFLSASVGDRVTITCRASQGISSYLAWYQQKPGKAPKLLIYAASTLQSGVPSRFSGSGSGTEFTLTISSLQPEDFATYYCQQLISYPWTFGQGTKVEIKR
notes: PR003379 variant L:N92I; human IgG1 L234A, L235A, G237A
B6: PR006502 (antibody, human IgG1, kappa, V domains shown)
VH: QVQLVQSGAEVKKPGASVKVSCKASGYTFAGYYMYWVRQAPGQGLEWMGWINPDSGAPTYAQKFQGRVTMTRDTSISTAYMELSRLRSDDTAVYYCAREKIYYGSGNYYPSFDYWGQGTLVTVSS
VL: DIQLTQSPSFLSASVGDRVTITCRASQGISSYLAWYQQKPGKAPKLLIYAASTLQSGVPSRFSGSGSGTEFTLTISSLQPEDFATYYCQQLDSYPWTFGQGTKVEIKR
notes: PR003379 variant L:N92D; human IgG1 L234A, L235A, G237A
B7: PR006500 (antibody, human IgG1, kappa, V domains shown)
VH: QVQLVQSGAEVKKPGASVKVSCKASGYTFAGYYMYWVRQAPGQGLEWMGWINPDSGAPTYAQKFQGRVTMTRDTSISTAYMELSRLRSDDTAVYYCAREKIYYGSGNYYPSFDYWGQGTLVTVSS
VL: DIQLTQSPSFLSASVGDRVTITCRASQGISSYLAWYQQKPGKAPKLLIYAASTLQSGVPSRFSGSGSGTEFTLTISSLQPEDFATYYCQQLMSYPWTFGQGTKVEIKR
notes: PR003379 variant L:N92M; human IgG1 L234A, L235A, G237A
B8: PR006499 (antibody, human IgG1, kappa, V domains shown)
VH: QVQLVQSGAEVKKPGASVKVSCKASGYTFAGYYMYWVRQAPGQGLEWMGWINPDSGAPTYAQKFQGRVTMTRDTSISTAYMELSRLRSDDTAVYYCAREKIYYGSGNYYPSFDYWGQGTLVTVSS
VL: DIQLTQSPSFLSASVGDRVTITCRASQGISSYLAWYQQKPGKAPKLLIYAASTLQSGVPSRFSGSGSGTEFTLTISSLQPEDFATYYCQQLWSYPWTFGQGTKVEIKR
notes: PR003379 variant L:N92W; human IgG1 L234A, L235A, G237A

Columns and labels:
[1] = molecular target: T1, human CD40 on cells (human, UniProt P25942 21-277); assay: FACS, Raji cells
T1 construct: whole, on cells; The cell line used is named in each row's assay; also called hCD40; TNFRSF5
T1 sequence (P25942 21-277): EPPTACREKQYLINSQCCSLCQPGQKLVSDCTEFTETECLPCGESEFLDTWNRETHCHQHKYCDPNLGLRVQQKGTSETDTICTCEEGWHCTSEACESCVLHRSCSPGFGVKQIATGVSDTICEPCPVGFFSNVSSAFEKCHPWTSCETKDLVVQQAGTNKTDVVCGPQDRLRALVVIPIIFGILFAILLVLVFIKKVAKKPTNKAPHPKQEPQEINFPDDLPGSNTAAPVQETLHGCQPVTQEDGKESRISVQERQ
Source text: (§1) Flow cytometry (FACS) was used to detect the binding ability of the CD40 antibody to cells, such as, CHO-K1/hCD40 highly expressing human CD40 (constructed by Beijing Kyinno Biotechnology), CHO-K1/cyCD40 highly expressing cynomolgus monkey CD40 (constructed by Beijing Kyinno Biotechnology) and lymphoma cell highly expressing human CD40, Raji (ATCC, #CCL-86). Specifically, the cells were digested and resuspended with complete medium (F-12K for CHO-K1 cells; and RPMI-1640 for Raji cells); and the cells were adjusted to a cell density of 1×10⁶ cells/mL. The cells were seeded in a 96-well V-bottom plate (Corning, #3894) at 100 μL/well, and the antigen binding protein to be tested at 2x final concentration was then added at 100 μL/well and mixed evenly, with the highest final concentration of the antigen binding protein of 300 nM, a total of 8 concentrations, and 5-fold concentration gradient dilution. hIgG (Crownbio, #C0002) was used as a negative control, and the positive control molecule was the molecule in Table 1-5. The cells were incubated at 4° C. for 1 hours in the dark. After the incubation, the cells were rinsed twice by adding pre-chilled PBS at 100 μL/well, and centrifuged at 500 g at 4° C. for 5 minutes, and the supernatant was discarded. Then, a fluorescent secondary antibody (goat anti-human IgG (H+L) secondary antibody, Alexa Fluor® 488 conjugate, Invitrogen, #A11013, 1:1000 dilution) was added at 100 µL/well, and the cells were incubated at 4° C. for 30 minutes in the dark. The cells were washed twice with pre-chilled PBS at 200 μL/well, and centrifuged at 500 g at 4° C. for 5 minutes, and the supernatant was discarded. Finally, the cells were resuspended in pre-chilled PBS at 200 μL/well. The fluorescence signal values were read using a BD FACS CANTOII flow cytometer or ACEA NovoCyte flow cytometer, and the data were processed and analyzed using FlowJo v10 software (FlowJo, LLC).
(§2) Data processing and graphical analysis were performed using GraphPad Prism 8 software. The binding curve of the antibody to the target cell and parameters, such as EC50 value were obtained by four-parameter nonlinear fitting.

[2] = molecular target: T1, human CD40 on cells; assay: cell-based or functional assay
[3] = molecular target: T2, cynomolgus monkey CD40 on cells (cynomolgus monkey, UniProt G7PG38 21-278); assay: FACS, CHO-K1/cyCD40 cells
T2 construct: also called cyCD40; CHO-K1/cyCD40
T2 sequence (G7PG38 entry or part of it limits assumed): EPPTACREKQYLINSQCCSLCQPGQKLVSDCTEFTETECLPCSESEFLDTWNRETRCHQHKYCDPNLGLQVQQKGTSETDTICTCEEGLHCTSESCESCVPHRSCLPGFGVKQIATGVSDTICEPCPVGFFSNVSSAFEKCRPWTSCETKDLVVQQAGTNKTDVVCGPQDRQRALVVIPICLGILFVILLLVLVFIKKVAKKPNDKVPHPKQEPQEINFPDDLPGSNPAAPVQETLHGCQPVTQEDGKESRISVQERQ
Source text: as §1, §2

[4] = molecular target: T1, human CD40 on cells; assay: FACS, CHO-K1/hCD40 cells
Source text: as §1, §2

Row | Binder | EC50 [1] | Maximum MFI [1] | EC50 (nM), crosslinked, HEK293-hCD40-NFkB reporter [2] | EC50 (nM), uncrosslinked, HEK293-hCD40-NFkB reporter [2] | Fold (EC50 in the absence of crosslinking/EC50 in the presence of crosslinking) [2] | Maximum fold (fold), crosslinked [2] | Maximum fold (fold), uncrosslinked [2] | EC50 [3] | Maximum MFI [3] | EC50 [4] | Maximum MFI [4]
1 | B1 | 0.356 nM | 8870 MFI | 0.109 nM | 0.905 nM | 8.28 fold | 5.54 fold | 4.92 fold | 4.41 nM | 48000 MFI | 4.9 nM | 79400 MFI
2 | B2 | 0.35 nM | 12200 MFI | 0.157 nM | 0.708 nM | 4.5 fold | 5.21 fold | 4.7 fold | 3.71 nM | 51000 MFI | 4.87 nM | 86000 MFI
3 | B3 | 0.252 nM | 9200 MFI | 0.158 nM | 0.479 nM | 3.03 fold | 4.77 fold | 4.61 fold | 3.54 nM | 51700 MFI | 5.09 nM | 92300 MFI
4 | B4 | 0.277 nM | 9300 MFI | 0.217 nM | 0.43 nM | 1.98 fold | 5.03 fold | 4.43 fold | 3.5 nM | 49700 MFI | 4.8 nM | 88200 MFI
5 | B5 | 0.344 nM | 8980 MFI | 0.196 nM | 0.462 nM | 2.36 fold | 5.53 fold | 4.4 fold | 4.04 nM | 47300 MFI | 4.97 nM | 77700 MFI
6 | B6 | 0.287 nM | 9040 MFI | 0.17 nM | 0.321 nM | 1.88 fold | 4.95 fold | 4.63 fold | 3.96 nM | 47700 MFI | 4.55 nM | 88500 MFI
7 | B7 | 0.351 nM | 8980 MFI | 0.169 nM | 0.301 nM | 1.78 fold | 5.55 fold | 4.33 fold | 4.4 nM | 48500 MFI | 5.01 nM | 85900 MFI
8 | B8 | 0.301 nM | 8980 MFI | 0.405 nM | 1.04 nM | 2.58 fold | 5.28 fold | 3.92 fold | 3.2 nM | 49800 MFI | 4.65 nM | 84200 MFI
